# Source: the supplement of paper PMC10567573
# B1: P2RY14 (parent)
# chain: KKIFKSHLKSSRNSTSVKKKSSRN
# B2: SMTNL2 (parent)
# chain: ETAAGKGKGEARARLKRSQSFGVA
# Variants of: B1
# Test: protein stability index of a GFP-peptide fusion (GPS, HEK-293T) (PSI 1-6); higher = more stable
# Conditions: c terminus: a fixed tail appended
# 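Also: lentivirally expressed fusions sorted by FACS into six bins by GFP to DsRed ratio, PSI derived from sequencing read proportions per bin multiplied by bin number.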
row,Variant,protein stability index
1,R23D,4.1
2,R23T,3.88
3,R23L,3.51
4,R23E,4.18
5,R23Y,4.07
6,R23C,3.91
7,R23Q,4.38
8,R23N,4.25
9,R23A,4.05
10,R23V,4.1
11,R23G,3.94
12,R23F,3.42
13,R23W,3.51
14,R23S,4.28
15,R23H,3.57
16,R23K,4.2
17,R23P,3.73
18,R23M,3.76
19,R23I,3.67
20,N24V,4.11
21,N24R,4.16

row,Variant,protein stability index
1,N24A,4.14
2,N24T,4.28
3,N24P,3.91
4,N24I,3.61
5,N24F,3.61
6,N24E,3.91
7,N24D,4.29
8,N24L,4.12
9,N24Q,4.23
10,N24K,3.81
11,N24S,4.07
12,N24C,3.55
13,N24Y,3.46
14,N24W,3.6
15,N24M,3.3
16,N24G,4.57
17,N24H,4.38
18,S22Y,3.56
19,S22W,3.33
20,S22V,4.33

# Variants of: B2
# Test: as above
# Conditions: c terminus: a fixed tail appended
row,Variant,protein stability index
1,T2A,4.74
2,T2L,4.36
3,T2H,4.46
4,T2V,4.79
5,T2D,5.39
6,T2S,4.66
7,T2P,4.92
8,T2E,4.83
9,T2Q,4.55
10,T2G,4.71
11,T2K,4.58
12,T2Y,3.83
13,T2N,4.86
14,T2I,4.11
15,T2M,4.65
16,T2F,4.46
17,T2C,4.53
18,T2W,3.07
19,K8W,3.87
20,K8G,3.96
21,K8R,4.38
22,K8A,5.13
23,K8S,4.43
24,K8D,5.01
25,K8E,4.89

row,Variant,protein stability index
1,K8H,4.44
2,K8L,4
3,K8T,4.08
4,K8N,4.8
5,K8P,4.54
6,K8Y,4.2
7,K8Q,5.13
8,K8I,4.12
9,K8V,4.62
10,K8C,4.17
11,K8F,4.29
12,K8M,4.66
13,K6E,5.05
14,K6A,4.62
15,K6W,3.79
16,K6R,4.39
17,K6T,4.78
18,K6P,4.59
19,K6H,4.53
20,K6C,2.43
21,K6Q,3.41
22,K6D,4.85
23,K6F,4.56
24,K6Y,3.9
25,K6L,4.04

row,Variant,protein stability index
1,K6G,3.58
2,K6I,4.54
3,K6S,4.62
4,K6N,4.32
5,K6M,3.87
6,K6V,4.23
7,G7A,4.28
8,G7C,3.48
9,G7W,3.03
10,G7H,4.18
11,G7Y,4.2
12,G7R,4.11
13,G7N,4.02
14,G7T,4.48
15,G7V,4.01
16,G7F,3.87
17,G7P,4.08
18,G7I,4.17
19,G7L,4.26
20,G7K,4.62
21,G7Q,4.46
22,G7E,4.71
23,G7S,4.22
24,G7D,4.75
25,G7M,3.73

row,Variant,protein stability index
1,L15G,4.49
2,L15T,3.83
3,L15S,4.76
4,L15Q,4.91
5,L15M,3.95
6,L15H,4.44
7,L15V,4.76
8,L15D,4.03
9,L15K,4.77
10,L15A,4.46
11,L15R,4.49
12,L15F,3.69
13,L15Y,4.09
14,L15I,4.51
15,L15P,5.01
16,L15W,4.29
17,L15N,4.89
18,L15E,4.7
19,L15C,4.24
20,G9F,4.12
21,G9K,4.21
22,G9H,4.58
23,G9E,4.96
24,G9R,4.27
25,G9P,4.43

row,Variant,protein stability index
1,G9A,4.12
2,G9V,4.26
3,G9W,3.27
4,G9C,4.21
5,G9S,5.08
6,G9Y,4.42
7,G9T,3.6
8,G9D,4.53
9,G9Q,4.51
10,G9M,3.95
11,G9L,3.6
12,G9N,4.56
13,G9I,4.37
14,E10M,4.44
15,E10T,4.38
16,E10Q,3.9
17,E10H,4.44
18,E10R,4.53
19,E10Y,3.35
20,E10D,4.38
21,E10C,3.51
22,E10I,3.96
23,E10N,4.21
24,E10W,3.4
25,E10L,3.79

row,Variant,protein stability index
1,E10K,4.29
2,E10G,4.49
3,E10F,3.7
4,E10S,4.46
5,E10V,4.27
6,E10P,4.27
7,E10A,4.33
8,R14F,4.18
9,R14E,4.88
10,R14Y,4.09
11,R14C,4.53
12,R14H,4.69
13,R14Q,4.66
14,R14T,4.4
15,R14L,4.29
16,R14P,5.19
17,R14M,4.27
18,R14K,4.85
19,R14D,4.82
20,R14S,4.41
21,R14W,4.03
22,R14A,3.79
23,R14V,4.25
24,R14G,4.9
25,R14I,4.27

row,Variant,protein stability index
1,R14N,4.68
2,E1S,4.48
3,E1F,3.21
4,E1P,4.09
5,E1D,4.49
6,E1G,4.54
7,E1W,3.63
8,E1N,4.35
9,E1A,3.91
10,E1V,3.33
11,E1K,3.82
12,E1Q,4.03
13,E1R,3.82
14,E1M,3.88
15,E1Y,3
16,E1T,3.72
17,E1I,3.58
18,E1C,4.05
19,E1L,4.18
20,E1H,3.94
21,A3Q,4.56
22,A3S,4.28
23,A3Y,3.74
24,A3L,4.8
25,A3D,4.72

row,Variant,protein stability index
1,A3T,4.65
2,A3N,4.74
3,A3C,3.86
4,A3M,4.5
5,A3P,4.88
6,A3R,4.1
7,A3E,4.94
8,A3I,4.13
9,A3F,4.28
10,A3K,4.38
11,A3H,4.31
12,A3W,4.27
13,A3V,4.33
14,A3G,4.54
15,A13T,4.61
16,A13S,4.67
17,A13D,4.4
18,A13I,4.54
19,A13C,4.38
20,A13V,3.82
21,A13W,3.67
22,A13P,4.7
23,A13Y,4.3
24,A13L,4.11
25,A13M,4.05

row,Variant,protein stability index
1,A13R,4.05
2,A13N,4.55
3,A13E,4.95
4,A13G,4.78
5,A13F,3.9
6,A13K,4.86
7,A13H,4.83
8,A13Q,4.38
9,G5F,4.04
10,G5H,4.77
11,G5N,4.58
12,G5W,4.06
13,G5I,3.91
14,G5D,3.84
15,G5M,3.93
16,G5C,4.41
17,G5E,4.79
18,G5K,4.8
19,G5A,4.94
20,G5R,4.42
21,G5Y,4.07
22,G5S,4.24
23,G5Q,4.39
24,G5P,4.52
25,G5V,4.34

row,Variant,protein stability index
1,G5T,4.38
2,G5L,4.56
3,A11T,4.62
4,A11P,4.46
5,A11F,3.71
6,A11R,4.73
7,A11W,3.65
8,A11C,3.96
9,A11Q,4.19
10,A11L,4.5
11,A11I,3.69
12,A11E,4.69
13,A11G,4.61
14,A11V,4.02
15,A11M,4.19
16,A11K,4.74
17,A11D,4.8
18,A11S,4.58
19,A11Y,4.06
20,A11H,4.49
21,A11N,4.56
22,K16F,3.89
23,K16I,3.35
24,K16A,4
25,K16E,4.57

row,Variant,protein stability index
1,K16L,3.62
2,K16M,3.83
3,K16G,4.67
4,K16C,3.77
5,K16D,4.62
6,K16H,4
7,K16N,4.46
8,A4I,4.24
9,A4P,4.54
10,A4E,5.09
11,A4L,3.81
12,A4M,4.71
13,A4V,3.99
14,A4K,4.81
15,A4C,4.46
16,A4R,4.46
17,A4N,4.13
18,A4Q,4.78
19,A4S,4.02
20,A4Y,4.77
21,A4G,4.29
22,A4H,4.3
23,A4W,3.98
24,A4T,4.67
25,R12T,3.76

row,Variant,protein stability index
1,R12Q,4.61
2,R12F,3.9
3,R12K,4.88
4,R12W,3.14
5,R12D,4.79
6,R12A,4.76
7,R12V,4.83
8,R12I,3.95
9,R12S,4.92
10,R12H,4.45
11,R12Y,4.28
12,R12M,3.94
13,R12P,4.67
14,R12N,3.82
15,R12G,5.1
16,R12L,4.24
17,R12E,5.03
18,R12C,4.38
